We go through three molecules from US20190270826A1 (Janssen / Centocor, published 2019).

As a reminder, the Kd is the equilibrium constant for the complex coming apart. What is called koff is the rate constant with which the complex falls apart. In general, kon refers to the second-order rate constant of association.

Read-outs that look alike come from different tables or passages of the source.

Test [1] has as its target T1, recombinant cyno IL1RAP ECD (cynomolgus monkey, UniProt P59822 21-367 (rhesus entry)).
T1 construct: also called rcynoIL1RAP
T1 sequence: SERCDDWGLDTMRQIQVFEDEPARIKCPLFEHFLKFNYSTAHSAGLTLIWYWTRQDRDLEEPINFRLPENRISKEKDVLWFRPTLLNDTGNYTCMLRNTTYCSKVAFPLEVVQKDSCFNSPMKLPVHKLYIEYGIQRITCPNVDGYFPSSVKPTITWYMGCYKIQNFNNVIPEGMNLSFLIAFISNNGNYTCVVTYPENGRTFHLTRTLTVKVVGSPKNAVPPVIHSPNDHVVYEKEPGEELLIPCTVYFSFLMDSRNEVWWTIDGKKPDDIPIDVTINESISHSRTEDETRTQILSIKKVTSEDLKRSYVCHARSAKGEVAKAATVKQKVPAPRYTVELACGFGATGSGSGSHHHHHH
Description: recombinant protein.

Test [2] deals with T2, cyno IL1RAP ECD displayed on HEK-293F cells (pDisplay) (cynomolgus monkey, UniProt P59822 21-367 (rhesus entry)).
T2 sequence: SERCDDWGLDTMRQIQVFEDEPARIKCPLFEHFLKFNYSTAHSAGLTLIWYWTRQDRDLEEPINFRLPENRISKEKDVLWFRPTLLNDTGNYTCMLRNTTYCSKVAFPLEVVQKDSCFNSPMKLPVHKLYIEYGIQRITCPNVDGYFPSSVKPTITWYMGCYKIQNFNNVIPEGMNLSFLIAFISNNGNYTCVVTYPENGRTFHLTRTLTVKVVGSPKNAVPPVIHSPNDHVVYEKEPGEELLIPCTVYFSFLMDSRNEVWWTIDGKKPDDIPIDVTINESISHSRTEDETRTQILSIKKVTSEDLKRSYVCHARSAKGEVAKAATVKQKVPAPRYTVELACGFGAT
The experiment in a line: HEK-293F cells (MSD).

For test [3], the target named is T3, human IL1RAP ECD displayed on HEK-293F cells (pDisplay) (human, UniProt Q9NPH3 21-367).
T3 construct: also called Human clone HE2 IL1RAP FL-ECD cell line
T3 sequence: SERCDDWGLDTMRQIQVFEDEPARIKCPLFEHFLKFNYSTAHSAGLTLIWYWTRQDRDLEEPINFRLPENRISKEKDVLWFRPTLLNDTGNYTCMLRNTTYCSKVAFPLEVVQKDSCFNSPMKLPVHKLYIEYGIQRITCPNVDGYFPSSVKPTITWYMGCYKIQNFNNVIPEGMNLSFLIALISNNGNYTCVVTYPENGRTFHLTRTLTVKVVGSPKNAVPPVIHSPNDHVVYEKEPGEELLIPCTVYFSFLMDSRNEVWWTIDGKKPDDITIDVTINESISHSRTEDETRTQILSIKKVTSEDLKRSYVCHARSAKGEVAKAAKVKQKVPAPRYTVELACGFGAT
Description: HEK-293F cells (MSD).

Test [4] deals with T4, recombinant human IL1RAP ECD (human, UniProt Q9NPH3 21-367).
T4 construct: His-tagged; also called hIL1RAP-ECD; rhuIL1RAP
T4 sequence: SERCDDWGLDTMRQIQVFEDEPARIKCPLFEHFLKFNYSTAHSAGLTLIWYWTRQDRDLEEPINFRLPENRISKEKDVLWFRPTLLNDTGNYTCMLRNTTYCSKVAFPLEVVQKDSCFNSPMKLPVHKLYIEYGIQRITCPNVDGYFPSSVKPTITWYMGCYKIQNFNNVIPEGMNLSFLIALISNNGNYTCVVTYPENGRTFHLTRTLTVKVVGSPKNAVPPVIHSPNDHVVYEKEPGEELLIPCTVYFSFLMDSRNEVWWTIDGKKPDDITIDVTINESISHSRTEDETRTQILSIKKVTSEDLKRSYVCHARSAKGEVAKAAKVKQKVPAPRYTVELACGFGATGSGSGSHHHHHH
Description: SPR (ProteOn).

Test [5] addresses T4, recombinant human IL1RAP ECD. Description: SPR, summary.
Test [6] shares this target. Description: SPR (ProteOn). The source holds these as a separate data set.
Test [7] shares this target. The experiment in a line: SPR; KD against parent IAPB4.
Test [8] concerns the target T5, rat IL1RAP ECD displayed on HEK-293F cells (pDisplay) (rat, UniProt Q63621 21-367).
T5 sequence: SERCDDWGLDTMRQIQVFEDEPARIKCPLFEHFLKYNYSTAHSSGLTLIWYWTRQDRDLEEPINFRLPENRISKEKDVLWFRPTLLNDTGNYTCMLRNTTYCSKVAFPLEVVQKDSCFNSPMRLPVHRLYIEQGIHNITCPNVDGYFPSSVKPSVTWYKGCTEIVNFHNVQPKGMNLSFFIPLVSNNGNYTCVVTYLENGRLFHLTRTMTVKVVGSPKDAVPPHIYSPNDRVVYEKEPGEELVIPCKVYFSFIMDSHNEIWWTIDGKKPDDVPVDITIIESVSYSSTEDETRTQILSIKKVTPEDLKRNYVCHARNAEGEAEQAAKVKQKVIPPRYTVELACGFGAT
The experiment in a line: HEK-293F cells (MSD).

The target in test [9] is T6, mouse IL1RAP ECD displayed on HEK-293F cells (pDisplay) (mouse, UniProt Q61730 21-367).
T6 sequence: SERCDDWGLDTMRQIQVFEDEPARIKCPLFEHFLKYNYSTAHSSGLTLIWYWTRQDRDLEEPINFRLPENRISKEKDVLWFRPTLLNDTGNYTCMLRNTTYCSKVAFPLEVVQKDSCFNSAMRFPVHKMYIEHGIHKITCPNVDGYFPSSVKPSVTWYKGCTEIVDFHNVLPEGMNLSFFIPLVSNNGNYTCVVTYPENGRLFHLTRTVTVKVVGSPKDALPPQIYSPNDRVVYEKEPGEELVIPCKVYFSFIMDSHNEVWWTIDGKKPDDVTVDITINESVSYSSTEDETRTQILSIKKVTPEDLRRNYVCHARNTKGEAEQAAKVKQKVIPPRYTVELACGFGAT
Description: HEK-293F cells (MSD).

B1: IAPB62 (antibody, human IgG4 S228P, kappa, F234A L235A, V domains shown)
VH: QVQLVQSGSELKKPGASVKVSCKASGYTFNTYAMNWVRQAPGQGLEWMGWINTNTGNPTYAQGFTGRFVFSLDTSVSTAYLQISSLKAEDTAVYYCARRYFDWLLGAFDIWGQGTMVTVSS
VL: DIQMTQSPSSVSASVGDRVTITCRASQGISSWLAWYQQKPGKAPKLLIYAASSLQSGVPSRFSGSGSGTDFTLTISSLQPEDFATYYCQQANSFPLTFGGGTKVEIKR
notes: IgG4-PAA; whole chains
With B1, the binding result in test [1], in [2] and in test [3] was “binds” throughout.

B2: IAPB04 (antibody, human IgG4 S228P, kappa, F234A L235A, V domains shown)
VH: QVQLVQSGAEVKKPGSSVKVSCKASGGTFSSYAISWVRQAPGQGLEWMGGISAIFGTANYAQKFQGRVTITADESTSTAYMELSSLRSEDTAVYYCARHLHNGIHLDYWGQGTLVTVSS
VL: EIVLTQSPATLSLSPGERATLSCRASQSVSNFLAWYQQKPGQAPRLLIYGASNRATGIPARFSGSGSGTDFTLTISSLEPEDFAVYYCQQGKHWPWTFGQGTKVEIKR
notes: IgG4-PAA; also called IAPB4; phage hit B4
As for B2, the binding result in test [1] and in test [2] was “binds” throughout. The Kd worked out at 4.73 nM in [4], 5.66 nM in test [5] and 5.66 nM in test [6]. The koff was 0.0014 s⁻¹ in test [4] and 0.00144 s⁻¹ in test [6]. For the same molecule, the association rate constant (kon) in test [4] stood at 295000 M⁻¹ s⁻¹; in test [6], 255000 M⁻¹ s⁻¹. For the same molecule, in test [7], the “Fold Different from parent” value was found to be 1 fold.

B3: IAPB38 (antibody, human IgG4 S228P, kappa, F234A L235A, V domains shown)
VH: EVQLLESGGGLVQPGGSLRLSCAASGFTFSNYAMNWVRQAPGKGLEWVSGINYGGGSKYYADSVKGRFTISRDNSKNTLYLQMNSLRAEDTAVYYCAKDYGPFALDYWGQGTLVTVSS
VL: EIVLTQSPATLSLSPGERATLSCRASQSVDDWLAWYQQKPGQAPRLLIYTASNRATGIPARFSGSGSGTDFTLTISSLEPEDFAVYYCQQYHHWPLTFGQGTKVEIKR
notes: IgG4-PAA; whole chains
As to B3, the binding result in test [1], in test [2], in [8], in [9] and in test [3] was “binds” each time.
